For one experiment, the system named is O1 LPS. Nature of the experiment: ELISA binding to O1 LPS. To be noted: secondary screening. Details: species or system Klebsiella pneumoniae. The procedure, abridged: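 Serial dilutions of monoclonal antibodies bound to LPS-coated plates for 1 h at room temperature, detected with alkaline phosphatase-conjugated anti-human IgG (1 h) and pNPP substrate (30 min). Absorbance read at 405 nm; EC50 values derived from binding curves.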
(In general: ELISA stands for enzyme-linked immunosorbent assay.)

The target of the next experiment is O2 LPS. Nature of the experiment: Octet binding assay, O2 LPS. Details: species or system Klebsiella pneumoniae. To be noted: average; calculated from on-rate and off-rate of Octet sensorgram; read-out: affinity constant (KD) to O2 LPS. Here is the method: The interaction of anti-O2 LPS mAbs with O1 and O2 LPS was further tested in solution phase by Octet platform. This platform provides a powerful tool to measure the rate of biomolecular complex formation and complex stability in a more biologically meaningful setting. Briefly, Protein A coated sensors were coated with 0.2 μg/mL anti-O2 LPS mAbs for 10 minutes before being dipped into solution containing 2 μg/mL O1 or O2 LPS in Kinetics buffer (ForteBio, dilute 10× to 1× with PBS). Changes in the number of molecules bound to the biosensor caused a shift in the interference pattern that was recorded in real time. […] The affinity constant (KD) of Class III mAbs to O2 LPS was calculated based on the on-rate and off-rate from Octet sensorgram.

The test system of experiment [1] is O1 LPS activation of NF-κB in RAW264.7-lux cells. Nature of the experiment: LPS neutralization assay (NF-κB luciferase, RAW264.7-lux), O1 LPS. As to conditions: secondary screening. It is filed as cell-based, murine. The procedure, abridged:
(§1)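 Serially diluted mAbs (human IgG1) pre-mixed 1:1 with LPS at 4 °C for 1 hr, then diluted 1:10 onto RAW264.7-lux cells carrying an NF-κB-driven firefly luciferase; 2.5 h at 37 °C. Luminescence read; % inhibition relative to no-antibody and negative-control mAb wells.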

The subject of experiment [2] is O2 LPS activation of NF-κB in RAW264.7-lux cells. In words: LPS neutralization assay (NF-κB luciferase, RAW264.7-lux), O2 LPS. It is filed as cell-based, murine. Details: key to LPS Neut O2: +++: Strongly positive activity; +: Positive activity; +/−: Somewhat positive depending upon the test conditions. The procedure, abridged:
as §1

In experiment [3] the test system is antibiotic resistant Klebsiella pneumoniae strains. Type of experiment: in vivo. Here is the method: C57/BL6 mice were obtained from Jackson Laboratories and maintained in a special pathogen-free facility. All animal experiments were conducted in accordance with Institutional Animal Care and Use Committee (IACUC) protocol and guidance. K. pneumoniae strains were grown on agar plates overnight and diluted in saline at proper concentration. The inoculum titer was determined by plating a serial dilution of bacteria onto agar plates prior to and post challenge. In acute pneumonia models, C57/BL6 mice were inoculated with 1e4 to 2e8 colony-forming units (CFU) of K. pneumoniae clinical isolates in 50 μl saline intranasally. Anti-K pneumoniae monoclonal antibodies (mAbs) and human IgG1 control antibodies were given 1-24 hour post bacterial challenge (therapeutic dosing). Mouse survival was monitored daily until up to day 8. Survival data of representative experiments were plotted in Graphpad Prism software.
The lethal pneumonia model as described in Example 9 was used to assess the activity of anti-O2 LPS antibodies in combination with an antibiotic. Both antibiotic and antibody were administered 1 hour after bacterial infection.
50 mg/kg of meropenem and 2 mg/kg of antibody were administered at 1, 2, 4, 6, and 24 hour after bacterial infection, as described for the antibody and antibiotic combination studies in Examples 9 and 10.

By Kd is commonly meant the concentration at which binding is half-saturated.

B1: KPN179: Class III anti-O2 antigen human mAb; VH SEQ ID NO: 53, VL SEQ ID NO: 54 (antibody, V domains shown)
VH: EVQVVESGGGLVKPGGSLRLSCAASGFTFNNAWMNWVRQAPGKGLEWVGRIKRKADGETTDYPASVKGRFTVSRDDSKNTIYLQMNSLKTEDTAIYYCTTRIVTTNDYWGQGTLVTVSS
VL: QSALTQPPSVSGSPGQSVTISCTGTSSDVGYYDYVSWYQQHHPGKAPKHMIYDVNKRPSGVPDRFSGSKSGNTASLTISGLQAEDEADYYCCSYAGGDTFVFGTGTKVTVL
modifications: Description of Artificial Sequence: SyntheticKPN179 VH polypeptide; Description of Artificial Sequence: SyntheticKPN179 VL polypeptide
Take B1: the “binding to LPS-O1” value in the experiment with O1 LPS is given as “bind”. Further, the equilibrium dissociation constant (Kd) at O2 LPS was 7.98 nM. Also, the “neutralization of LPS-O1” value in experiment [1] was “did not show LPS-neutralizing activity”. For the same molecule, the “LPS Neut O2” value in experiment [2] (Table 7 summary) is listed as “+/−”. For the same molecule, the “neutralization of LPS-O2” value in experiment [2] (secondary screening) is “did not show LPS-neutralizing activity”. Also, the “time post infection up to which combination with meropenem protects better than control mAb and meropenem” value in experiment [3] (50 mg/kg meropenem + 2 mg/kg antibody given 1, 2, 4, 6, 24 hour after infection, mice) is reported as “up to 4 hours”. Moreover, the “protection of combination with meropenem compared to antibody or antibiotic monotherapy” value in experiment [3] (meropenem 50 mpk + antibody 0.2 mpk, both 1 hour after infection, mice) is on record as “significantly improved protection”. The “synergy with meropenem in lethal pneumonia model” value in experiment [3] (sub-therapeutic antibody dose, % survival of mice) was “strong synergy”.
